Test results as given in article PMC8643277.

Columns and labels:
GFP-NLRP6 monomer = target: T1, GFP-NLRP6 monomer (Homo sapiens, UniProt P59044 1-892); assay: MST
T1 sequence: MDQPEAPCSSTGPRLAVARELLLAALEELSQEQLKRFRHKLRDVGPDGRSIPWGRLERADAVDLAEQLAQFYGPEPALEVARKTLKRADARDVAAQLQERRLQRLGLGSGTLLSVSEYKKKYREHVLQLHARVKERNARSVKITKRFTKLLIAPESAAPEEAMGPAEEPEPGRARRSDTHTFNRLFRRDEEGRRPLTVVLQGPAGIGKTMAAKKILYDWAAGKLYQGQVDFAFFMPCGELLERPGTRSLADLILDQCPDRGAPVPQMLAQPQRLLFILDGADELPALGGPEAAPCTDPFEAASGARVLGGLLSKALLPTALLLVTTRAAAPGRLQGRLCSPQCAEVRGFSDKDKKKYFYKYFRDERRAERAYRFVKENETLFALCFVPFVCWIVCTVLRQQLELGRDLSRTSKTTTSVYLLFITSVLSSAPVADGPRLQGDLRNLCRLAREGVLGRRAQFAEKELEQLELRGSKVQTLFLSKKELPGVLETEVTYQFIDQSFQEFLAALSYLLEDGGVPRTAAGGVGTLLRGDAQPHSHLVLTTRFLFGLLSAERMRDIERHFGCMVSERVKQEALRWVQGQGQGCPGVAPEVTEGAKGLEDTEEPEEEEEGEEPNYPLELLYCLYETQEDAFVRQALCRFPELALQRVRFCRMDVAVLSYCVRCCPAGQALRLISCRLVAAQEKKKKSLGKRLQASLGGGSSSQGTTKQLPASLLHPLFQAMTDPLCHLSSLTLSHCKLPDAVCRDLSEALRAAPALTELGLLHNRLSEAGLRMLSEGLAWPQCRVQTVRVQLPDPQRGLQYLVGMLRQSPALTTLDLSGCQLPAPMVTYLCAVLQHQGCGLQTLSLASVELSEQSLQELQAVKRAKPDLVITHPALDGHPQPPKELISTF

MBP-NLRP3 deltaPYD = MBP-NLRP3 deltaPYD (UniProt Q96P20 134-1034); assay: EMSA
MBP-NLRP3 deltaPYD, sequence (Q96P20 134-1034, stated change not applied): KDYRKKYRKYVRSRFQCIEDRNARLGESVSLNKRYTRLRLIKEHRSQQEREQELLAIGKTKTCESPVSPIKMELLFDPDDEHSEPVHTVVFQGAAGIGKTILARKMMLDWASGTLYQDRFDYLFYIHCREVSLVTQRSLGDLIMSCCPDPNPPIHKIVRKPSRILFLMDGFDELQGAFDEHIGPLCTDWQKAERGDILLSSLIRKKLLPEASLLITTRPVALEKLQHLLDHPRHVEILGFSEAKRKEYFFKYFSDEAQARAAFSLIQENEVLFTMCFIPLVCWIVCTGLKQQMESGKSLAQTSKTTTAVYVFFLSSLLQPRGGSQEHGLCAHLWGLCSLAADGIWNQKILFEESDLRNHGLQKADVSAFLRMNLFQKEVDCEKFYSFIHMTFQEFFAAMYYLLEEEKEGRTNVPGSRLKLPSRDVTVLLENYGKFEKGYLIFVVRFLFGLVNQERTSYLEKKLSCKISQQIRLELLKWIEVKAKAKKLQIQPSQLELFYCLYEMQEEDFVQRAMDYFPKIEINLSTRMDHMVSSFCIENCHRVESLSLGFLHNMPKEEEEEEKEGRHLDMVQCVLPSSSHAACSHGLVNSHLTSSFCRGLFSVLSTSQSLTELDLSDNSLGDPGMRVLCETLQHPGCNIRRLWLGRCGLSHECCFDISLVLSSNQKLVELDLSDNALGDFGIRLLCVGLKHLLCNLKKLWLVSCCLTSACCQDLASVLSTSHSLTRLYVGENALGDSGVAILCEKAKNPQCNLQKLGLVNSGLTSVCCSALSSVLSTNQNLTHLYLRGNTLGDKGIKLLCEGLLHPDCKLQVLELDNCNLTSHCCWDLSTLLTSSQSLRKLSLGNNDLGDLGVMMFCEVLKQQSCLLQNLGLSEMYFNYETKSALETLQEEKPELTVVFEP

B1: 20-bp dsRNA (dsRNA)
RNA 1: GACCUUCUGAUCAGAAGGUC
RNA 2: GACCUUCUGAUCAGAAGGUC
- Kd (GFP-NLRP6 monomer): ~1200 nM
- binding result (MBP-NLRP3 deltaPYD): no binding
